Test results published in patent publication US20250195614A1 (IMMUNITYBIO, published 2025).

Key:
[1] = molecular target: IL2Rβ and common γ chain on 32Dβ cells; assay: cell-based or functional assay
[2] = molecular target: TGF-β1 (UniProt P01137 279-390); assay: cell-based or functional assay
TGF-β1, sequence (P01137 279-390 limits assumed): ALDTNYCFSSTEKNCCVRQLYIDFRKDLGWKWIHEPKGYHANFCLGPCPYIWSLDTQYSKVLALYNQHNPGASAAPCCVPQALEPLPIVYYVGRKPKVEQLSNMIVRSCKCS

EC50 (printed as IC50), IL-15 activity on IL-15 dependent 32Dβ cells (WST-1, OD450) [1] | EC50, 32Dβ cell proliferation (WST1, absorbance 450 nM) [1] | IC50, TGF-β1 blocking activity in HEK-Blue TGF-β cells (OD620) [2] | IC50, inhibition of TGFβ1 (0.1 nM) activity in HEK-Blue TGFβ cells (QUANTI-Blue OD 620-655 nM) [2] | TGF-β1 blocking activity against that of TGFRt15-TGFRs or TGFRt15*-TGFRs (HEK-Blue TGF-β cells) [2] | Molecule
0.0818 nM | 0.0106 nM | – | – | – | recombinant IL-15 (from UniProt P40933 49-162) (ligand)
– | – | 0.47 nM | 0.461 nM | ~10 fold | commercial TGF-β1 receptor II-Fc fusion (TGFRII/Fc, R&D Systems) (Fc fusion, UniProt P37173 24-159, looked up, not shown: a dimerising Fc or GST) IPPHVQKSVNNDMIVTDNNGAVKFPQLCKFCDVRFSTCDNQKSCMSNCSITSICEKPQEVCVAVWRKNDENITLETVCHDPKLPYHDFILEDAASPKCIMKEKKKPGETFFMCSCSSDECNDNIIFSEEYNTSNPD
